Positions count from the first letter of the chain named.
B1: antibody 2024 (antibody, V domains shown)
VH: QVQLVQSGAEVKKPGASVKVSCKVSGYTLIELSMHWVRQAPGKGLEWMGGFDPEEGETIYAQKFQGRVTMTEDTSTDTAYMELSSLRSEDTAVYYCTTSPPVGATGAWFDPWGQGTLVTVSA
VL: SYVLTQPPSVSVAPGKTARITCGGNNIGSKSVHWYQQKPGQAPVLVVYDDSDRPSGIPERFSGSNSGNTATLTISGLQAEDEADYYCSSYTSSSTVVFGGGTKLTVL
B2: antibody 1238 (antibody, V domains shown)
VH: QVQLVQSGSELKKPGASVKVSCKASGYTFTNYGMNWVRQAPGQGLEWMGWINTNTGNPTNAQGFTGRFVFSLDTSVSTAYLQINSLKGEDTAVYYCARVADTGEMDVWGQGTTVTVSS
VL: SYELTQPPSVSVSPGQTARITCSGDALPKQYAYWYQQKPGQAPVLVIYKDSERPSGIPERFSGSSSGTTVTLTISGVQAEDEADYYCQSADSSGSYNWVFGGGTKLTIL
B3: antibody 2019 (antibody, V domains shown)
VH: QVQLVESGGGVVQPGGSLSLSCAASGLSFSSYGMHWVRQAPGKGLEWVAFIRYDVSNKYYADSVKGRFTISRDNSKNTLYLQMNSLRVEDTAVYYCATWAPLDDGMDVWGQGTTVTVSS
VL: B2 VL with S51T, A90G, S95T, Y96F, N97Y, W98V, I108V
B4: antibody 2788 (antibody, V domains shown)
VH: QVQLVQSGAEVKKPGASVKVSCKVSGYTLIELSMHWVRQAPGKGLEWMGGFDPEGAETIYAQKFQGRVTMTEDTSTDTAYMELSSLRSDDTAVYYCATGPAVFAANWFDPWGQGTLVTVSS
VL: QSALTQPPSASGSPGQSVTISCTGTSSDIGNYNNVSWYQQHPGKAPKLMIYDVIKRPSGVPDRFSGSKSGNTASLTVSGLQAEDEADYYCSSYAGKSYVFGTGTKVTVL
B5: antibody 2892 (antibody, V domains shown)
VH: QVQLVQSGAEVKKPGSSVKVSCKASGDAFISYAISWVRQAPGQGLEWMGGIIPIFGTANYAQKFQGRVTISADESTSTAYMELSRLRSEDTAVYYCARGGPEPYGSGSGYTPRYNWFDPWGQGTLVTVSS
VL: QSALTQPRSVSGSPGQSVTISCTGTSSDVGGYNYVSWYQQHPGKAPKFMIYDVNRRPSGVPDRFSGSKSGNTASLTISGLQAEDEADYYCCSYAGTYTWVFGGGTKLTVL
B6: antibody 2794 (antibody, V domains shown)
VH: QVQLVQSGAEVKKPGSSLKVSCKASGGTFNNFAISWVRQAPGQGPEWMGRINPILSAAKYAQKFQGRLTITADKSTTTAYMELSSLRSEDTAVYYCAPTGTGESWWFDPWGQGTLVTVSS
VL: QSVLTQPPSASGTPGQRVTISCSGSSSNIGTNYVYWYQQLPGTAPKVLIYGNNQRPSGVPDRFSGSKSGSSASLAISGLRSEDEADYYCAAWDDSLSGPVFGGGTKLTVL
B7: antibody 2564 (antibody, V domains shown)
VH: QVQLVQSGAEVKKPGSSVRVSCKASGGTFISYTFNWVRQAPGQGLEWMGRIIPIFGIVNYAQKFQGRVTIAADKSTSTAYMELSSLRSEDTAMYYCATATVDYDSGEEQSSFDPWGQGTLVTVSS
VL: EIVLTQSPGTLSLSPGERATLSCRASQSVSSSYLAWYQQKAGQTPRLLIYAASSRATGVPDRFSGSGSGTDFTLTISRLEAEDFAVYYCQQSWTFGQGTKVEIK
B8: antibody 3086 (antibody, V domains shown)
VH: QVQLQESGPGLVKPSETLSLTCTVSGGSISGHYWSWIRQPPGKGLEWIGYIYYSGSTNYNPSLKSRVTISVDTSVNQFSLKLSSVTAADTAVYYCARQEARDAVGNYFFDSWGQGTLVTVSS
VL: QSALTQPASVSGSPGQSITISCSGTSSDIGSYDLVSWYQQHPGKAPKLLIYDVTKRPSGVSHRFSGSKSGNTASLTISGLQGEDEADYYCCSYVHFSTWVFGGGTKLTVL
B9: antibody 3091 (antibody, V domains shown)
VH: QMQLVQSGPEVKKPGTSVKVSCKASGFTFSSSAVQWVRQARGQGLEWIGWIVVGSGNANYAQKLQERVSITRDMSTSTAYMELSSLRPEDTAVYYCAAPHCSRTICHDGFDMWGQGTMVTVSS
VL: EIVLTQSPGTLSLSPGERATLSCRASQSVRSSYLAWYQQKPGQAPRLLMFVASSRATGIPDRFSGSGSGTDFTLTISRLEPEDFAVYYCQQYDTSPWTFGQGTKVEIK
B10: antibody 980 (antibody, V domains shown)
VH: QVQLVESGGGVVQPGRSLRLSCAASGFTFSRYGMHWVRQAPGKGLEWVALISSGGSNKYYADSVKGRFTISRDNSKNTLYLEMNSLRAEDTAVYYCAKDAIYDYIWGAYRENWFDPWGQGTLVTVSS
VL: DIQMTQSPSSLSASVGDRVTITCRASQSISNYLNWYQQKPGKAPNLLIYAASSLQSGVPSRFSGSGSGTDFTLTISSLQPEDFATYYCQQTSSPPLTFGQGTKVEIK
B11: antibody 3995 (antibody, V domains shown)
VH: EVQLVQSGAEVKKPGSSVKVSCKASGGTFSMHTIRWVRQAPGQGLEWMGRIIPMLGIVNYAQKFQGRVTISADKSTSTAYMELSSLTSEDTAMYYCAKGSHDVFDIWGQGTMVTVSS
VL: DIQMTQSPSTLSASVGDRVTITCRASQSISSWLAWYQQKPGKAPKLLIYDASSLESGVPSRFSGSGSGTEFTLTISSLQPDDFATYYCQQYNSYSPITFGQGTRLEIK
B12: antibody 4042 (antibody, V domains shown)
VH: QITLKESGPTLVKPTQTLTLTCTFSGFSLSSGGVGVGWIRQPPGKALEWLALIYWDDDKRYRPSLKSRLTITRDTSTNQVVLTMTNMDPVDTATYFCARHQIATVFDHWGQGTLVTVSS
VL: QSALTQPASVSGSPGQSITISCTGTSSDVGGYNYVSWYQQHPGKAPKLMIYEVSNRPSGVSSRFSGSKSGNTASLTISGLQAEDEADYYCSSYTRSSPLVAFGGGTKVTVL

These binders were tested against T1, Receptor-binding domain (RBD) of the SARS-CoV-2 spike protein, WA01/2020 strain (SARS-CoV-2, WA01/2020 strain, UniProt P0DTC2 319-541) (assay: ELISA, antibody at 0.1 ug/mL).

Row | Binder | binding result
1 | B1 | no binding (tested: 0.1 ug/mL)
2 | B2 | no binding (tested: 0.1 ug/mL)
3 | B3 | no binding (tested: 0.1 ug/mL)
4 | B4 | no binding (tested: 0.1 ug/mL)

Each binder was assayed against T2, SARS-CoV-2 spike protein on live virus, strain USA-WA1/2020 (SARS-CoV-2, WA01/2020 strain, UniProt P0DTC2 14-1273) (assay: cell-based or functional assay).

Row | Binder | IC50, live virus micro-neutralization WA1/2020
5 | B5 | 0.082 nM
6 | B6 | 0.055 nM
7 | B7 | 0.0226 nM
8 | B8 | 0.062 nM
9 | B9 | 0.055 nM
10 | B10 | 0.0082 nM
11 | B11 | 0.041 nM
12 | B12 | 0.039 nM

What follows are binders tested against T1, Receptor-binding domain (RBD) of the … (assay: SPR (Biacore 8K), antigen immobilized, antibody injected).

Row | Binder | Kd
13 | B5 | 0.005 nM
14 | B6 | 0.232 nM
15 | B7 | 0.012 nM
16 | B8 | 0.242 nM
17 | B9 | 0.004 nM
18 | B10 | 0.87 nM
19 | B11 | 0.057 nM
20 | B12 | 0.036 nM

Target: T2, SARS-CoV-2 spike protein on live virus, …
Assay: cell-based or functional assay
Remark: another data set of the same source

Row | Binder | Live Neut, WA1/2020 IC50 (pM)
21 | B1 | 95 pM
22 | B5 | 10 pM
23 | B6 | 17 pM
24 | B2 | 400 pM
25 | B3 | 107 pM
26 | B7 | 7 pM
27 | B8 | 7 pM
28 | B9 | 8 pM
29 | B4 | 117 pM
30 | B10 | 25 pM
31 | B11 | 51 pM
32 | B12 | 15 pM

What follows are binders tested against SARS-CoV-2 spike protein on live virus, B1.351 (beta variant) (SARS-CoV-2, B1.351) (assay: cell-based or functional assay).

Row | Binder | Live Neut, B1.351 IC50 (pM)
33 | B5 | 403 pM
34 | B7 | 121 pM
35 | B8 | 210 pM
36 | B9 | 172 pM
37 | B10 | 83 pM
38 | B11 | 135 pM
39 | B12 | 140 pM

These binders were tested against T1, Receptor-binding domain (RBD) of the … (assay: ELISA, antibody blocks RBD binding to human ACE2).

Row | Binder | IC50
40 | B5 | 0.762 nM
41 | B6 | 0.137 nM
42 | B7 | 0.776 nM
43 | B8 | 0.562 nM
44 | B9 | 0.56 nM
45 | B10 | 0.86 nM
46 | B11 | 0.692 nM
47 | B12 | 1.09 nM

These binders were tested against SARS-CoV-2 spike protein, B1.351 (beta variant), borne on lentiviral pseudovirus (SARS-CoV-2, B1.351) (assay: cell-based or functional assay).

Row | Binder | Pseudo Neut, B1.351 IC50 (pM)
48 | B5 | 125 pM
49 | B6 | 428 pM
50 | B7 | 196 pM
51 | B8 | 115 pM
52 | B9 | 78 pM
53 | B10 | 1740 pM
54 | B11 | 2830 pM
55 | B12 | 948 pM

Each binder was assayed against SARS-CoV-2 spike protein, B1.1.7 (alpha variant), borne on lentiviral pseudovirus (SARS-CoV-2, B1.1.7) (assay: cell-based or functional assay).

Row | Binder | Pseudo Neut, B1.1.7 IC50 (pM)
56 | B5 | ~13 pM
57 | B6 | 148 pM
58 | B7 | 33 pM
59 | B8 | 71 pM
60 | B9 | ~13 pM
61 | B10 | 1670 pM
62 | B11 | 667 pM
63 | B12 | 200 pM

What follows are binders tested against T1, Receptor-binding domain (RBD) of the … (assay: dose-response ELISA on coated antigen).

Row | Binder | EC50
64 | B5 | 0.089 nM
65 | B6 | 0.022 nM
66 | B7 | 0.023 nM
67 | B8 | 0.03 nM
68 | B9 | 0.03 nM
69 | B10 | 0.023 nM
70 | B11 | 0.021 nM
71 | B12 | 0.021 nM
